This is an account of results in publication PMC4844972, “A dynamic interaction process between KaiA and KaiC is critical to the cyanobacterial circadian oscillator” (Scientific Reports, 2016).

Positions count from the first letter of the chain named.

The chains are these.
B1: wild-type KaiC of Synechococcus elongatus PCC 7942 (enzyme)
chain: MTSAEMTSPNNNSEHQAIAKMRTMIEGFDDISHGGLPIGRSTLVSGTSGTGKTLFSIQFLYNGIIEFDEPGVFVTFEETPQDIIKNARSFGWDLAKLVDEGKLFILDASPDPEGQEVVGGFDLSALIERINYAIQKYRARRVSIDSVTSVFQQYDASSVVRRELFRLVARLKQIGATTVMTTERIEEYGPIARYGVEEFVSDNVVILRNVLEGERRRRTLEILKLRGTSHMKGEYPFTITDHGINIFPLGAMRLTQRSSNVRVSSGVVRLDEMCGGGFFKDSIILATGATGTGKTLLVSRFVENACANKERAILFAYEESRAQLLRNAYSWGMDFEEMERQNLLKIVCAYPESAGLEDHLQIIKSEINDFKPARIAIDSLSALARGVSNNAFRQFVIGVTGYAKQEEITGLFTNTSDQFMGAHSITDSHISTITDTIILLQYVEIRGEMSRAINVFKMRGSWHDKAIREFMISDKGPDIKDSFRNFERIISGSPTRITVDEKSELSRIVRGVQEKGPES
notes: KaiC, Synechococcus elongatus PCC 7942; expressed from pGEX-6P-1; The sample is a mixture of phosphorylated and de-phosphorylated KaiC (sites T432 and S431); also called the wild-type KaiC
B2: KaiC-2-1 (enzyme, Synechococcus elongatus PCC 7942)
chain: B1 chain with I497V, V499T, S503T
notes: KaiC, Synechococcus elongatus PCC 7942, with the mutations of Cluster II; The oligomer state is said to be the same as that of the wild type; also called KaiC mutant of Cluster II
B3: KaiC-3-1 (enzyme, Synechococcus elongatus PCC 7942)
chain: B1 chain with S493V, T495H
notes: KaiC, Synechococcus elongatus PCC 7942, with the mutations of Cluster III; The oligomer state is said to be the same as that of the wild type; also called KaiC mutant of Cluster III
B4: KaiC-1-1 (enzyme, Synechococcus elongatus PCC 7942)
chain: B1 chain with K502R
notes: KaiC, Synechococcus elongatus PCC 7942, with the mutation of Cluster I; The oligomer state is said to be the same as that of the wild type; also called KaiC mutant of Cluster I
B5: wild-type KaiA of Synechococcus elongatus PCC 7942 (natural protein)
chain: MLSQIAICIWVESTAILQDCQRALSADRYQLQVCESGEMLLEYAQTHRDQIDCLILVAANPSFRAVVQQLCFEGVVVPAIVVGDRDSEDPDEPAKEQLYHSAELHLGIHQLEQLPYQVDAALAEFLRLAPVETMADHIMLMGANHDPELSSQQRDLAQRLQERLGYLGVYYKRDPDRFLRNLPAYESQKLHQAMQTSYREIVLSYFSPNSNLNQSIDNFVNMAFFADVPVTKVVEIHMELMDEFAKKLRVEGRSEDILLDYRLTLIDVIAHLCEMYRRSIPRET
notes: KaiA, Synechococcus elongatus PCC 7942; expressed from pGEX-6P-1; Plasmid provided by Dr. Carl Johnson; also called the wild-type KaiA
B6: KaiA-2-1 (natural protein, Synechococcus elongatus PCC 7942)
chain: B5 chain with L259Q
notes: KaiA, Synechococcus elongatus PCC 7942, with the mutation of Cluster II; The oligomer state is said to be the same as that of the wild type; also called KaiA mutant of Cluster II
B7: KaiA-1-1 (natural protein, Synechococcus elongatus PCC 7942)
chain: B5 chain with E239N, A245W
notes: KaiA, Synechococcus elongatus PCC 7942, with the mutations of Cluster I; R249 belongs to the cluster but was not mutated; The oligomer state is said to be the same as that of the wild type; also called KaiA mutant of Cluster I
B8: KaiA-3-1 (natural protein, Synechococcus elongatus PCC 7942)
chain: B5 chain with R253H, S254K, I257F
notes: KaiA, Synechococcus elongatus PCC 7942, with the mutations of Cluster III; The oligomer state is said to be the same as that of the wild type; also called KaiA mutant of Cluster III

One data set concerns the molecule itself. The experiment in a line: native gel or EMSA; 8% native gel of the purified proteins, to analyse their oligomerization statuses.
Conditions: not given
On the technique in general: Mobility shift assays separate free from complexed probe on a gel.
In the case of B1, the binding result is “binds”.

B2: the binding result is “binds”.

With B3, the binding result was “binds”.

B4: the binding result is “binds”.

For B5, the binding result is given as “binds”.

Regarding B6, the binding result is “binds”.

Consider B7, for which the binding result is “binds”.

Consider B8, for which the binding result was “binds”.

A further data set deals with KaiC (Synechococcus elongatus) (UniProt Q79PF4).
Test: not given
As to conditions: cited from earlier work.
As a reminder, the Kd is the constant that tells how readily two partners part at equilibrium. Consider KaiA (from UniProt Q79PF6), for which the Kd was 2.5 µM.
